Here are results for 2 substances from PMC12718150.

As a reminder, the stoichiometry N is a count of units in the complex or per binding partner.

The target in experiment [1] is 2-hydroxy-hept-2,4-diene-1,7-dioate (HHDD) isomerase (HHDDI) from Acinetobacter baumannii TH (Acinetobacter baumannii TH). In words: SEC; single purified enzyme (0.5-1.0 mg/ml) on ENrich SEC650 (10 x 300 mm), buffer G (50 mM HEPES, pH 7.0, 150 mM NaCl), 0.5 ml/min, 4 °C; native MW from a calibration curve of protein standards against subunit MW. On the technique in general: In gel filtration, larger molecules generally elute earlier.

Experiment [2] has the same target.
Experiment [3] shares this target. Description: SEC; ENrich SEC650 gel filtration column, FPLC; OPETD and HHDDI mixed at 1:1 molar ratio (0.5 and 1.0 mg/ml), incubated on ice in buffer G (50 mM HEPES, pH 7.0, 150 mM NaCl); 0.5 ml/min, 4 °C; native MW from a calibration curve.

In turn, “2-hydroxy-hept-2,4-diene-1,7-dioate (HHDD) isomerase (HHDDI) from Acinetobacter baumannii TH (enzyme)” had a stoichiometry N in experiment [1] of 2.
In experiment [2], “5-oxo-pent-3-ene-1,2,5-tricarboxylate (OPET) decarboxylase (OPETD) from Acinetobacter baumannii TH (enzyme)” showed a tri-acid decarboxylation activity of the OPETD-HHDDI complex against HHDDI alone (synthesized tri-acid substrate, LC-MS/MS of the di-acid) of 12 fold and a tri-acid decarboxylation activity of the OPETD-HHDDI complex against OPETD alone (synthesized tri-acid substrate, LC-MS/MS of the di-acid) of 60 fold. The stoichiometry N (OPETD per HHDDI) in experiment [3] is 1.
